Assay results taken from article doi:10.1101/2025.04.08.647717.

How the values were obtained:
[1] = molecular target: WT EaeSPARDA (binary DREN-APAZ:Ago monomer) (Enhydrobacter aerosaccus); assay: SEC-MALS
[2] = molecular target: EaeE37A (EaeSPARDA with E37A in the DREN domain of DREN-APAZ) (Enhydrobacter aerosaccus); assay: SEC-MALS
[3] = molecular target: WT XauSPARDA (binary DREN-APAZ:Ago monomer) (Xanthobacter autotrophicus strain Py2); assay: SEC-MALS
[4] = molecular target: XauE37A (XauSPARDA with E37A in the DREN domain of DREN-APAZ) (Xanthobacter autotrophicus strain Py2); assay: SEC-MALS
[5] = molecular target: XauDREN-APAZ protein (Xanthobacter autotrophicus strain Py2); assay: cryo-EM structure
[6] = molecular target: XauHSH (XauSPARDA whose XauAgo carries a 29 aa HSH-tag at the C-terminus) (Xanthobacter autotrophicus strain Py2); assay: SEC-MALS

Substance: WT EaeSPARDA (binary DREN-APAZ:Ago monomer) (complex)
- stoichiometry N [1]: 2

Substance: EaeE37A (EaeSPARDA with E37A in the DREN domain of DREN-APAZ) (complex)
- stoichiometry N [2]: 2

Substance: WT XauSPARDA (binary DREN-APAZ:Ago monomer) (complex)
- stoichiometry N [3]: 2

Substance: XauE37A (XauSPARDA with E37A in the DREN domain of DREN-APAZ) (complex)
- stoichiometry N [4]: 2

Substance: XauDREN-APAZ protein (natural protein)
- stoichiometry N [5]: 4

Substance: XauHSH (XauSPARDA whose XauAgo carries a 29 aa HSH-tag at the C-terminus) (complex)
- stoichiometry N [6]: 2
